“Also recorded” adds a separate entry of the source.
Experiments:
HBV = test: AAV-HBV mouse model for chronic HBV infection: viral DNA, HBsAg, anti-HBsAg seroconversion; format: in vivo
Procedure: C57BL/6 mice were transduced with AAV8-HBV1.2 vector and sorted into treatment groups (n=10). Animals received 0.5 mg/dose of ASGR1-TLR8-S, 0.5 mg of unconjugated mASGR1 mAb or vehicle, sc QWx5 beginning d0 (black arrows). In FIG. 8A, dotted line is LLOQ for HBsAg ELISA. In FIG. 8B, average plasma anti-HBsAg IgG was determined by ELISA. p-values determined by T-test by comparison to vehicle group.
An in vivo mouse model for chronic HBV to examine the therapeutic effect of ASGR1-TLR8 agonists of the instant disclosure. […] Like TLR8 in humans, and in contrast to TLR7 in humans, TLR7 in mice is expressed in myeloid cells, like macrophages. Thus, for in vivo murine experiments, an anti-ASGR1-TLR7 agonist conjugate was generated as a surrogate for human anti-ASGR1-TLR8 agonist conjugates. In addition, the anti-human ASGR1 antibody 4F3 was “murinized” so as to bind to mouse ASGR1.
On day 0 animals were sorted into viral load-balanced treatment groups of 10. […] The experiment was ended on day 35. Weekly plasma samples were assessed for viral DNA and antigens, including samples from post-transduction (i.e., infection) but pre-treatment. HBV DNA in mouse plasma was isolated with QIAAMP® 96 DNA Blood Kit following the manual and quantified by qPCR. The standard curve DNA of 10^7 copies/μL was prepared by 60-fold dilution of 5 ng/μL pAAV2-HBV1.3 plasmid DNA, then serially diluted 10-fold with AE buffer from 10^7 to 10 copies/μL. A 2 μl volume from samples was added to standard qPCR assay mixtuRes. The PCR mixture and samples or plasmid DNA standard were added to 384-well optical reaction plates. PCR was run at 95° C. for 10 min for 1 cycle, at 95° C. for 15 sec, 60° C. for 1 min for 40 cycles. HBsAg plasma levels were determined by ELISA assay using HBsAg ELISA kit (Autobio) according to the manual.

AAV-HBV transduced mice = test: Viral DNA and HBsAg antigen in mouse AAV-HBV model (replicated experiment); format: in vivo
[1] = Procedure: Throughout the course of this experiment, weekly body weights were obtained for each animal. In addition, the animals were monitored for an increase in ALT enzyme activity as a sign of liver damage. Plasma samples from d0, d7, d21, and d35 were assayed for levels of ALT with ALT Activity Assay Kit (Sigma Chemical Co., MAK052).
[2] = tested on: NK cells, CD8+ T cells and CD4+ T cells in human PBMC and ASGR1pos target cell co-culture; test: IFNγ on NK cells, CD8+ and CD4+ T cells in human PBMC and ASGR1pos target cell co-culture (FACS); format: cell-based; details: 10 nM, 24 or 48 hours; FIG. 10
Procedure: (§1) Normal human donor PBMCs were co-cultured with cell lines expressing ASGR1 (ASGR1^pos) or not (ASGR1^neg) in the presence of 10 nM of either anti-ASGR1-TLR8 conjugate, the unconjugated antibody, an anti-digoxigenin-TLR8 conjugate or no treatment. After 24 or 48 hours of incubation, cells were harvested and processed for FACS analysis (BD FACSCelesta™ Flow Cytometer) by standard procedures for washing and incubation with immune cell lineage antibodies, that included antibodies to detect levels of cell activation molecules, including anti-IFNγ antibody.

[3] = tested on: B cells in human PBMC and ASGR1pos target cell co-culture; test: CD86 on CD19pos B cells in human PBMC and ASGR1pos target cell co-culture (FACS); format: cell-based; details: 10 nM, 24 or 48 hours; FIG. 9 and FIG. 11
Procedure: as §1, with “included anti-CD19 antibody to identify B cells, and” for “included”, “anti-CD86” for “anti-IFNγ”

CD19^pos B cells = test: CD86 on CD19pos B cells after PBMC co-culture (flow cytometry); format: cell-based, human; details: co-culture of PBMC with ASGR1^pos cells, 10 nM, 24 and 48 hours
Procedure: FIG. 9 is a pair of graphs showing that ASGR1-TLR8 increases B cell expression of CD86, an activation marker indicative of increased antigen presentation and IgG secretion. CD86 levels on CD19^pos B cells were determined by flow cytometry after co-culture of PBMC with ASGR1^pos or ASGR1^neg cells in presence of test articles at 10 nM at 24 hours (left) and 48 hours (right). This ASGR1-TLR8 contains a mouse-human chimeric anti-ASGR1 antibody.
ASGR1-TLR8 conjugate activation increases B-cell expression of CD86, an activation marker indicating increased antigen presentation and IgG secretion. Abbreviations: monoclonal antibody (mAb), positive (pos), negative (neg), mean fluorescence intensity (MFI), hours (hrs). This ASGR1-TLR8 conjugate contains a humanized anti-ASGR1 antibody and has a DAR4.

[4] = defined from liver payload PK after SC doses
From the text: Subcutaneous (SC) doses assessed are similar to those in FIGS. 6A and 6B. Liver payload PK was used as measure of conjugate uptake.
SC doses assessed are similar to those in FIGS. 6A and 6B. Liver payload PK was used as measure of conjugate uptake.

[5] = 0.5 mg subcutaneous once a week for 5 weeks

B1: ASGR1-TLR8-S: "The surrogate (i.e., murinized ASGR1 mAb-C (having 4F3 CDRs)-IgG2a conjugated to a TLR7 agonist Compound 4.1)" (conjugate)
heavy: EVKLVESGGGLVKPGGSLKLSCAASGFTFSSYAMSWVRQTPEKRLEWVSAISGSGGSTYYADSVKGRFTISRDNAKNTLYLQMSSLRSEDTAMYYCAKDFSSRRWYLEYWGQGTTLTVSSAKTTAPSVYPLAPVCGDTTGSSVTLGCLVKGYFPEPVTLTWNSGSLSSGVHTFPAVLQSDLYTLSSSVTVTSSTWPSQSITCNVAHPASSTKVDKKIEPRGPTIKPCPPCKCPAPNLLGGPSVFIFPPKIKDVLMISLSPIVTCVVVDVSEDDPDVQISWFVNNVEVHTAQTQTHREDYNSTLRVVSALPIQHQDWMSGKEFKCKVNNKDLPAPIERTISKPKGSVRAPQVYVLPPPEEEMTKKQVTLTCMVTDFMPEDIYVEWTNNGKTELNYKNTEPVLDSDGSYFMYSKLRVEKKNWVERNSYSCSVVHEGLHNHHTTKSFSRTPGK
light: QAVLTQEPALSVSLGQTVTLTCQGDSLRSYYASWYQQKPGQAPVLVIYGKNNRPSGVPARFSGSLIGDKAALTITGAQTEDEAIYYCNSLERIGYLSYVFGGGTKVTVLRADAAPTVSIFPPSSEQLTSGGASVVCFLNNFYPKDINVKWKIDGSERQNGVLNSWTDQDSKDSTYSMSSTLTLTKDEYERHNSYTCEATHKTSTSPIVKSFNRNEC
modifications: conjugated to TLR7 agonist Compound 4.1; Synthetic sequence mzASGR1 mAb-C Heavy Chain (VH-IgG2a); Synthetic sequence mzASGR1 mAb-C Light Chain (VL-kappa)
HBsAg antigen in plasma (HBV; [5]): significantly lowered; also recorded: reduces
Viral DNA in plasma (HBV; [5]): significantly lowered
Anti-HBsAg seroconversion (HBV; 0.5 mg/dose sc QWx5): drives seroconversion
HBsAg antigen (AAV-HBV transduced mice; FIG. 8A): significantly lowered
viral DNA (AAV-HBV transduced mice; data not shown): significantly lowered
Body weight [1, 5]: gained weight like control animals
ALT enzyme activity ([1]; plasma d0, d7, d21, d35): no increase

B2: ASGR1-TLR8: This ASGR1-TLR8 contains a mouse-human chimeric anti-ASGR1 antibody (conjugate)
heavy: EVKLVESGGGLVKPGGSLKLSCAASGFTFSSYAMSWVRQTPEKRLEWVSAISGSGGSTYYADSVKGRFTISRDNAKNTLYLQMSSLRSEDTAMYYCAKDFSSRRWYLEYWGQGTTLTVSSAKTTAPSVYPLAPVCGDTTGSSVTLGCLVKGYFPEPVTLTWNSGSLSSGVHTFPAVLQSDLYTLSSSVTVTSSTWPSQSITCNVAHPASSTKVDKKIEPRGPTIKPCPPCKCPAPNLLGGPSVFIFPPKIKDVLMISLSPIVTCVVVDVSEDDPDVQISWFVNNVEVHTAQTQTHREDYNSTLRVVSALPIQHQDWMSGKEFKCKVNNKDLPAPIERTISKPKGSVRAPQVYVLPPPEEEMTKKQVTLTCMVTDFMPEDIYVEWTNNGKTELNYKNTEPVLDSDGSYFMYSKLRVEKKNWVERNSYSCSVVHEGLHNHHTTKSFSRTPGK
light: QAVLTQEPALSVSLGQTVTLTCQGDSLRSYYASWYQQKPGQAPVLVIYGKNNRPSGVPARFSGSLIGDKAALTITGAQTEDEAIYYCNSLERIGYLSYVFGGGTKVTVLRADAAPTVSIFPPSSEQLTSGGASVVCFLNNFYPKDINVKWKIDGSERQNGVLNSWTDQDSKDSTYSMSSTLTLTKDEYERHNSYTCEATHKTSTSPIVKSFNRNEC
modifications: TLR8 agonist conjugated; Synthetic sequence mzASGR1 mAb-C Heavy Chain (VH-IgG2a); Synthetic sequence mzASGR1 mAb-C Light Chain (VL-kappa)
notes: This ASGR1-TLR8 contains a mouse-human chimeric anti-ASGR1 antibody
levels of IFNγ on NK cells, CD8+ T cells and CD4+ T cells (MFI) [2]: drives an IFNγ response
levels of CD86 on CD19pos cells (MFI) [3]: B cells were activated
B cell expression of CD86 (CD19^pos B cells): increases

B3: ASGR1-S: a mouse conjugate surrogate for an ASGR1-TLR8 conjugate intended for therapeutic use in a human (conjugate)
heavy: EVKLVESGGGLVKPGGSLKLSCAASGFTFSSYAMSWVRQTPEKRLEWVSAISGSGGSTYYADSVKGRFTISRDNAKNTLYLQMSSLRSEDTAMYYCAKDFSSRRWYLEYWGQGTTLTVSSAKTTAPSVYPLAPVCGDTTGSSVTLGCLVKGYFPEPVTLTWNSGSLSSGVHTFPAVLQSDLYTLSSSVTVTSSTWPSQSITCNVAHPASSTKVDKKIEPRGPTIKPCPPCKCPAPNLLGGPSVFIFPPKIKDVLMISLSPIVTCVVVDVSEDDPDVQISWFVNNVEVHTAQTQTHREDYNSTLRVVSALPIQHQDWMSGKEFKCKVNNKDLPAPIERTISKPKGSVRAPQVYVLPPPEEEMTKKQVTLTCMVTDFMPEDIYVEWTNNGKTELNYKNTEPVLDSDGSYFMYSKLRVEKKNWVERNSYSCSVVHEGLHNHHTTKSFSRTPGK
light: QAVLTQEPALSVSLGQTVTLTCQGDSLRSYYASWYQQKPGQAPVLVIYGKNNRPSGVPARFSGSLIGDKAALTITGAQTEDEAIYYCNSLERIGYLSYVFGGGTKVTVLRADAAPTVSIFPPSSEQLTSGGASVVCFLNNFYPKDINVKWKIDGSERQNGVLNSWTDQDSKDSTYSMSSTLTLTKDEYERHNSYTCEATHKTSTSPIVKSFNRNEC
modifications: conjugated to TLR agonist Compound 4.1; Synthetic sequence mzASGR1 mAb-C Heavy Chain (VH-IgG2a); Synthetic sequence mzASGR1 mAb-C Light Chain (VL-kappa)
notes: a mouse conjugate surrogate for an ASGR1-TLR8 conjugate intended for therapeutic use in a human
Seroconversion in the AAV-HBV model (HBV; at 5 mg/kg and 10 mg/kg): observed in some animals
Target payload liver concentration [4]: approximately 100 ng/g

From patent publication US11541126B1, “Anti-ASGR1 antibody TLR8 agonist comprising conjugates and uses thereof” (Silverback Therapeutics, Inc., priority 2020, dated 2023)
